{
  "source": "patent US12098206B2",
  "about": "“PDGF receptor antibody and use thereof” (Seoul National University R&DB Foundation, priority 2018, dated 2024)",
  "target": "T1, mPDGFR-β and cotinine (Mus musculus, UniProt P05622)",
  "T1 construct": "mPDGFR-β",
  "T1 sequence (P05622 32-530)": "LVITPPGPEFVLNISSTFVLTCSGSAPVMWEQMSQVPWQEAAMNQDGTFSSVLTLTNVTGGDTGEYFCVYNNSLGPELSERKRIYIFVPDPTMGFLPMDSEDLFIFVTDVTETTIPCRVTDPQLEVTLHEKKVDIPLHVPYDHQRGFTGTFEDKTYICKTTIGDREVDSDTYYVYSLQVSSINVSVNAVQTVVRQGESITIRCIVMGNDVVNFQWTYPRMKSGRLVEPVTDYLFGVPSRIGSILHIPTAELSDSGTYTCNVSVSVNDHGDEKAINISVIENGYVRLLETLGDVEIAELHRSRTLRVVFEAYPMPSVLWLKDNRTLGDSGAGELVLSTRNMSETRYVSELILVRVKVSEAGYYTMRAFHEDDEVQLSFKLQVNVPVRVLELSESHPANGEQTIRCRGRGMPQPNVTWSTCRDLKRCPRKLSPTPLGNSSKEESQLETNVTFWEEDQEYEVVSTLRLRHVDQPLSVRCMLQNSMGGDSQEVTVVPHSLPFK",
  "experiment": "Enzyme immunoassay, simultaneous binding to cotinine and mPDGFR-β",
  "conditions": "cotinine-BSA coated wells, then mPDGFR-β-Fc chimera; FIG. 3d",
  "experimental": "In order to confirm whether the bispecific antibody has simultaneous binding ability to both cotinine and mPDGFR-β, anti-mPDGFR-β x cotinine scFv-Cκ-scFv fusion protein was reacted in wells coated with cotinine-BSA. Washing was performed for each process, and mPDGFR-β-Fc chimeric protein and HRP-anti human Fc antibody were sequentially incubated.",
  "data": [
    {"molecule": "PRb-CN01: anti-mPDGFR-β chicken scFv clone (VH SEQ ID NO 7, VL SEQ ID NO 8), tested as scFv-Cκ-anti-cotinine scFv bispecific antibody (antibody, V domains shown, VH of PRb-CN01; VL of PRb-CN01) VH: AVTLDESGGGLQTPGGALSLVCKASGFTFSDRAMHWVRQAPGKGLEWVGLITNTGGSTNYGAAVKGRATISRDNGQSTVRLQLNNLRAEDTGTYYCTRGVGSWAHGGRIDAWGHGTEVIVSS VL: LTQPSSVSANPGETVKITCSGGSGSYGWFQQKSPGSAPVTVIYSNNQRPSDIPSRFSGSKSGSTNTLTITGVQAEDEAIYYCGTRDSSYVGIFGAGTTLTVL", "values": [
      {"measurement": "simultaneous binding to mPDGFR-β and cotinine", "value": "simultaneously bound to mPDGFR-β and cotinine"}
    ]}
  ]
}
